The source of these data is PMC3651894 (Cell, 2013).

In test [1] the target is T1, full-length FLAG-tagged Dicer (F-Dicer), baculovirus/Sf9 (human, UniProt Q9UPY3 1-1922). Put plainly: SEC.
In test [2] the target is F-DicerΔ3 mutant lacking the DUF283 domain (human). In words: co-IP.
Test [3] has as its target F-DicerΔN1 lacking a part of the DEAD-box RNA helicase domain (human). Put plainly: co-IP.
Test [4] addresses T1, full-length FLAG-tagged Dicer …. In words: pull-down + co-IP.

T1 sequence (Q9UPY3 whole entry, the tested form may be a part): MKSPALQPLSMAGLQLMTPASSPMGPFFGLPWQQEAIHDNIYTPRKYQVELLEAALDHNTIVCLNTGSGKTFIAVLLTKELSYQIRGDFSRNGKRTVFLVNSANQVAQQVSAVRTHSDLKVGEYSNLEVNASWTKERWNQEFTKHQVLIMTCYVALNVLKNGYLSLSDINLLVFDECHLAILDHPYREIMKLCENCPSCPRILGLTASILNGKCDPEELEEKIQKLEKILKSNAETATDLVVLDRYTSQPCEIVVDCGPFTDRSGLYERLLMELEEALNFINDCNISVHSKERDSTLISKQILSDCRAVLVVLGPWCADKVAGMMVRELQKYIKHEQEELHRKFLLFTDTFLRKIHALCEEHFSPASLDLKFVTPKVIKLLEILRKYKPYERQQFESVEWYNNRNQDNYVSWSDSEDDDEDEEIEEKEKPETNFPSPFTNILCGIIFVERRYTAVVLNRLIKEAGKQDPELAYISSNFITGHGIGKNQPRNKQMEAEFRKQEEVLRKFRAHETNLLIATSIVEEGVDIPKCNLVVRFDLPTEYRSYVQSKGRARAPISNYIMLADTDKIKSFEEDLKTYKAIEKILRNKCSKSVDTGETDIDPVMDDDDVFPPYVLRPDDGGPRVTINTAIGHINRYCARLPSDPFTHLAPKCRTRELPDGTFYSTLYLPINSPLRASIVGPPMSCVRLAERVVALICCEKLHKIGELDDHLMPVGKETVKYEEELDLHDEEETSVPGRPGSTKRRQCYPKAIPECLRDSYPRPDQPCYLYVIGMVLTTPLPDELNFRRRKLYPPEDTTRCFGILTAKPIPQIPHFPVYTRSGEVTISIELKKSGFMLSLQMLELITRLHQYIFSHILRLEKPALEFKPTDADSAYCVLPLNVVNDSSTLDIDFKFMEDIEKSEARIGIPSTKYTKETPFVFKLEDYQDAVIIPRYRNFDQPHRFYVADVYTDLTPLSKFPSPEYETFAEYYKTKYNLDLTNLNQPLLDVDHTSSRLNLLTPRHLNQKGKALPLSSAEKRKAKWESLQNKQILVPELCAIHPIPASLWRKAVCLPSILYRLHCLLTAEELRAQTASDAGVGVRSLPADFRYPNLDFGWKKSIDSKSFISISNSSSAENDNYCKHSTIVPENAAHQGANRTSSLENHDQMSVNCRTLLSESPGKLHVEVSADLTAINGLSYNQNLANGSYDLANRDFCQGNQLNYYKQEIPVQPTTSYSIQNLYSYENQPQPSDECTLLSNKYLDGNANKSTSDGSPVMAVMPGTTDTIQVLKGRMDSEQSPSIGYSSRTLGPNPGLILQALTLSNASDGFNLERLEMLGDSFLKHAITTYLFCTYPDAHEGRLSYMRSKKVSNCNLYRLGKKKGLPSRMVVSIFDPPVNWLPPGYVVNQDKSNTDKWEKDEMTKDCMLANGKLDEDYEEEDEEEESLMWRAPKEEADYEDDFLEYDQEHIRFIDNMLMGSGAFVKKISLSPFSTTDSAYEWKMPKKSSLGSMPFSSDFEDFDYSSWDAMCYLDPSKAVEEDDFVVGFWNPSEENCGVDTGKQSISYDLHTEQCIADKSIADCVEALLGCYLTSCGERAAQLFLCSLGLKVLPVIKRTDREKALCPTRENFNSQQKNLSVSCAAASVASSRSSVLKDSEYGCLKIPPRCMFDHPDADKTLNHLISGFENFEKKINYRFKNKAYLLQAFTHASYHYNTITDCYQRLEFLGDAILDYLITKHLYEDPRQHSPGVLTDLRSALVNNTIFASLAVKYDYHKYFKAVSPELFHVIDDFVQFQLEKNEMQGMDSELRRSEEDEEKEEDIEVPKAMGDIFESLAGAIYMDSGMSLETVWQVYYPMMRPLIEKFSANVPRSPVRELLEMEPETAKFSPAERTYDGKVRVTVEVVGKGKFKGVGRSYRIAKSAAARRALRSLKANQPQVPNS
F-DicerΔ3 mutant lacking the DUF283 domain (human), sequence (Q9UPY3 whole entry, stated change not applied, the tested form may be a part): as the sequence (Q9UPY3 whole entry, the tested form may be a part) above
F-DicerΔN1 lacking a part of the DEAD-box RNA helicase domain (human), sequence (Q9UPY3 whole entry, stated change not applied, the tested form may be a part): as the sequence (Q9UPY3 whole entry, the tested form may be a part) above

B1: full-length HAT (histidine affinity tag)-tagged ADAR1p110 (H-ADAR1p110), baculovirus/Sf9 (natural protein, human, UniProt P55265-5 1-931, looked up)
chain: MAEIKEKICDYLFNVSDSSALNLAKNIGLTKARDINAVLIDMERQGDVYRQGTTPPIWHLTDKKRERMQIKRNTNSVPETAPAAIPETKRNAEFLTCNIPTSNASNNMVTTEKVENGQEPVIKLENRQEARPEPARLKPPVHYNGPSKAGYVDFENGQWATDDIPDDLNSIRAAPGEFRAIMEMPSFYSHGLPRCSPYKKLTECQLKNPISGLLEYAQFASQTCEFNMIEQSGPPHEPRFKFQVVINGREFPPAEAGSKKVAKQDAAMKAMTILLEEAKAKDSGKSEESSHYSTEKESEKTAESQTPTPSATSFFSGKSPVTTLLECMHKLGNSCEFRLLSKEGPAHEPKFQYCVAVGAQTFPSVSAPSKKVAKQMAAEEAMKALHGEATNSMASDNQPEGMISESLDNLESMMPNKVRKIGELVRYLNTNPVGGLLEYARSHGFAAEFKLVDQSGPPHEPKFVYQAKVGGRWFPAVCAHSKKQGKQEAADAALRVLIGENEKAERMGFTEVTPVTGASLRRTMLLLSRSPEAQPKTLPLTGSTFHDQIAMLSHRCFNTLTNSFQPSLLGRKILAAIIMKKDSEDMGVVVSLGTGNRCVKGDSLSLKGETVNDCHAEIISRRGFIRFLYSELMKYNSQTAKDSIFEPAKGGEKLQIKKTVSFHLYISTAPCGDGALFDKSCSDRAMESTESRHYPVFENPKQGKLRTKVENGEGTIPVESSDIVPTWDGIRLGERLRTMSCSDKILRWNVLGLQGALLTHFLQPIYLKSVTLGYLFSQGHLTRAICCRVTRDGSAFEDGLRHPFIVNHPKVGRVSIYDSKRQSGKTKETSVNWCLADGYDLEILDGTRGTVDGPRNELSRVSKKNIFLLFKKLCSFRYRRDLLRLSYGEAKKAARDYETAKNYFKKGLKDMGYGNWISKPQEEKNFYLCPV
Consider B1, for which the stoichiometry N – broadly, the number of molecules, sites or subunits per partner or assembly – in test [1] is 1 ADAR1 per Dicer; in test [4], around 1 ADAR1 per Dicer. Further, the fold reduction of interaction against full-length F-Dicer in test [2] and in test [3] was below 4 fold throughout.
